Experimental data from paper doi:10.1101/2021.04.13.439655.

Target: full-length Smad2, wild type (S2FLWT), Q15796
Experiment: SAXS with ensemble optimization method
Settings: remark: other sources report otherwise

percent of the population as dimer at 56 μM: 18% | percent of the population as trimer at 13.8 μM: 1% | percent of the population as trimer at 56.1 μM: 16.4%
B1: full-length Smad2, wild type (S2FLWT), Q15796 1-467 (natural protein)
chain: MSSILPFTPPVVKRLLGWKKSAGGSGGAGGGEQNGQEEKWCEKAVKSLVKKLKKTGRLDELEKAITTQNCNTKCVTIPSTCSEIWGLSTPNTIDQWDTTGLYSFSEQTRSLDGRLQVSHRKGLPHVIYCRLWRWPDLHSHHELKAIENCEYAFNLKKDEVCVNPYHYQRVETPVLPPVLVPRHTEILTELPPLDDYTHSIPENTNFPAGIEPQSNYIPETPPPGYISEDGETSDQQLNQSMDTGSPAELSPTTLSPVNHSLDLQPVTYSEPAFWCSIAYYELNQRVGETFHASQPSLTVDGFTDPSNSERFCLGLLSNVNRNATVEMTRRHIGRGVRLYYIGGEVFAECLSDSAIFVQSPNCNQRYGWHPATVCKIPPGCNLKIFNNQEFAALLAQSVNQGFEAVYQLTRMCTIRMSFVKGWGAEYRRQTVTSTPCWIELHLNGPLQWLDKVLTQMGSPSVRCSSMS
